Results: paper PMC11220838, “Factors affecting macromolecule orientations in thin films formed in cryo-EM” (Acta Crystallographica. Section D, Structural Biology, 2024)
Where “and” joins values, the source holds several entries; their conditions need not be identical. Equal entries are not always repeated.

Columns and labels:
[1] = target: SARS-CoV-2 spike protein with C-terminal tag (SARS-CoV-2); assay: cryo-EM structure
[2] = target: T1, Human C-reactive protein (human), P02741; assay: cryo-EM structure; single-particle cryo-EM, plunge-frozen Quantifoil 1.2/1.3 grids, 20 mM Tris pH 8, 280 mM NaCl, 5 mM CaCl2, 0.03% NaN3; no additive or CTAB, SLS, Tween 20, Tween 80, A8-35; 20°C; settings: remark: other sources report otherwise
T1 chain: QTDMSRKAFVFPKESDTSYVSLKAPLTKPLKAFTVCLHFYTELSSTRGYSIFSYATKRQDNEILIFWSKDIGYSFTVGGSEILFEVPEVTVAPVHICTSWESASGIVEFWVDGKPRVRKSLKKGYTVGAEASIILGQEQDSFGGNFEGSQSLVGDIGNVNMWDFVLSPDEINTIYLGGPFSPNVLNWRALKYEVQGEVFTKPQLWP

[3] = target: the molecule itself; assay: cryo-EM structure; single-particle cryo-EM, plunge-frozen Quantifoil 0.6/1 grids, 25 mM HEPES pH 7.4, 50 mM NaCl; no additive or CTAB; 4 or 20°C; D3 symmetry

“SARS-CoV-2 spike protein with C-terminal tag (domain or fragment)” showed a stoichiometry N [1] of 3.

B1: Human C-reactive protein, P02741 19-224 (natural protein)
chain: T1 chain
In the case of B1, the stoichiometry N [2] is reported as 5 and 10.

B2: E. coli PaaZ (enzyme)
chain: QQLASFLSGTWQSGRGRSRLIHHAISGEALWEVTSEGLDMAAARQFAIEKGAPALRAMTFIERAAMLKAVAKHLLSEKERFYALSAQTGATRADSWVDIEGGIGTLFTYASLGSRELPDDTLWPEDELIPLSKEGGFAARHLLTSKSGVAVHINAFNFPCWGMLEKLAPTWLGGMPAIIKPATATAQLTQAMVKSIVDSGLVPEGAISLICGSAGDLLDHLDSQDVVTFTGSAATGQMLRVQPNIVAKSIPFTMEADSLNCCVLGEDVTPDQPEFALFIREVVREMTTKAGQKCTAIRRIIVPQALVNAVSDALVARLQKVVVGDPAQEGVKMGALVNAEQRADVQEKVNILLAAGCEIRLGGQADLSAAGAFFPPTLLYCPQPDETPAVHATEAFGPVATLMPAQNQRHALQLACAGGGSLAGTLVTADPQIARQFIADAARTHGRIQILNEESAKESTGHGSPLPQLVHGGPGRAGGGEELGGLRAVKHYMQRTAVQGSPTMLAAISKQWVRGAKVEEDRIHPFRKYFEELQPGDSLLTPRRTMTEADIVNFACLSGDHFYAHMDKIAAAESIFGERVVHGYFVLSAAAGLFVDAGVGPVIANYGLESLRFIEPVKPGDTIQVRLTCKRKTLKKQRSAEEKPTGVVEWAVEVFNQHQTPVALYSILTLVARQHGDFVD
notes: source: recombinantly overexpressed, purified as described in Sathyanarayanan et al. (2019)
B2 was tested, and the “stoichiometry N” value [3] was 6.
